Experimental findings from the supplement of paper PMC10065799, “High-throughput profiling of sequence recognition by tyrosine kinases and SH2 domains using bacterial peptide display” (eLife, 2023) are described below.

Series [1] deals with AncSZ. In words: phosphorylation enrichment, bacterial display (enrichment ratio); higher = better substrate or ligand; peptides without Tyr show the background.
Series [2] concerns the target EPHB1 (UniProt P54762). The series is described as above.
For series [3], the target named is EPHB2 (UniProt P29323). The series is described as above.
In series [4] the target is FGFR1 (UniProt P11362). The series is described as above.
Series [5] has as its target FGFR3 (UniProt P22607). Described as above.
Series [6] has as its system Fer (mouse). The description is as above.
Series [7] deals with Fes (UniProt P07332). The description is as above.
Fes, sequence (P07332 whole entry, looked up): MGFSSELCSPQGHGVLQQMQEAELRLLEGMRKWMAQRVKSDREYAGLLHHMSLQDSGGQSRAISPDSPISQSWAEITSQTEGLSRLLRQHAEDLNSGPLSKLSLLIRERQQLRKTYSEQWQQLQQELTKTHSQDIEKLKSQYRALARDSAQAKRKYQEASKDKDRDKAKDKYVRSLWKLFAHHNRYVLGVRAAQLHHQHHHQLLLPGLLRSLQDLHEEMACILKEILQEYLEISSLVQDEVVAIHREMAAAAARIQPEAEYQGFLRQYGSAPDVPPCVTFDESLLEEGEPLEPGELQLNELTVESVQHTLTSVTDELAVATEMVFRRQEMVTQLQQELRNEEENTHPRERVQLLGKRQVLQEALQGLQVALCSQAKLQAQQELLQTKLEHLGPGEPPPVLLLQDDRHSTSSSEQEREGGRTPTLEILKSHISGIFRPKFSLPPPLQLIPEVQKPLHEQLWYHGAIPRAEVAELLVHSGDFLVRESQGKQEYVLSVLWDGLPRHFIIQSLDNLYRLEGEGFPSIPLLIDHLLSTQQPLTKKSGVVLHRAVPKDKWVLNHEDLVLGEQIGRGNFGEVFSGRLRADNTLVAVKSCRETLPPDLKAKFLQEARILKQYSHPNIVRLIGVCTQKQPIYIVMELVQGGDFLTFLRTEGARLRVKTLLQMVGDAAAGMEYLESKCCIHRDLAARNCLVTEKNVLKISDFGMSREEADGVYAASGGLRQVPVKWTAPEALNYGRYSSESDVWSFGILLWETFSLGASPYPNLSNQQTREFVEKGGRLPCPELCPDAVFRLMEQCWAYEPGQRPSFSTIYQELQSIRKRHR
In series [8] the target is Fyn (UniProt P06241). Described as above.
Fyn, sequence (P06241 whole entry, looked up): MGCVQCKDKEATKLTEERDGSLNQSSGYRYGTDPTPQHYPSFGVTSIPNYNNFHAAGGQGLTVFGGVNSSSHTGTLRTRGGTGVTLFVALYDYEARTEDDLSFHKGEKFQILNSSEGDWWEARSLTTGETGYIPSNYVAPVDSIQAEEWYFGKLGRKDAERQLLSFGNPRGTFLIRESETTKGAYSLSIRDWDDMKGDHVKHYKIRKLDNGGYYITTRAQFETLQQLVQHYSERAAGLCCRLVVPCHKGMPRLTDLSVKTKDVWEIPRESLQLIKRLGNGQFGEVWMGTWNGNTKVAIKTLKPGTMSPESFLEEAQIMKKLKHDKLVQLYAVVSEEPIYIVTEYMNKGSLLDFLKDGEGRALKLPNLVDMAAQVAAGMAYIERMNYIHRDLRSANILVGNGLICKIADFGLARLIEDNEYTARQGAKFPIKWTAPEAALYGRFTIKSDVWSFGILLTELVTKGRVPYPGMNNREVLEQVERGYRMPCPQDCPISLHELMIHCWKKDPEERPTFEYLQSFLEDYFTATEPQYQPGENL
In series [9] the target is Hck (UniProt P08631). The series is described as above.
Hck, sequence (P08631 whole entry, looked up): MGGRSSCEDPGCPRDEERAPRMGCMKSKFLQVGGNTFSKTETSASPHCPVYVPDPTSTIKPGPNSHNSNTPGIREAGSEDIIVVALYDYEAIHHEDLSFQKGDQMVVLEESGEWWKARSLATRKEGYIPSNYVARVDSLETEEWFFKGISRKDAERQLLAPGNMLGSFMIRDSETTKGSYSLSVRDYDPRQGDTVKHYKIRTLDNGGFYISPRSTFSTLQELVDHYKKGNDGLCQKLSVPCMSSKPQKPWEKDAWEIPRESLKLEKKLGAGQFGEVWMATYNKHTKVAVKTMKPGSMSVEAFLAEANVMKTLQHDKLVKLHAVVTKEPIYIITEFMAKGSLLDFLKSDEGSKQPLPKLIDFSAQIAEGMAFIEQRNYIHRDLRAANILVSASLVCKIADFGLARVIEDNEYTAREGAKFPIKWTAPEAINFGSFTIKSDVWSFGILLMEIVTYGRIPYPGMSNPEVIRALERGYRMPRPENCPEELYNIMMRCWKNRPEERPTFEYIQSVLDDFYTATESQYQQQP
The target in series [10] is Jak2 (UniProt O60674). The series is described as above.
Jak2, sequence (O60674 whole entry, looked up): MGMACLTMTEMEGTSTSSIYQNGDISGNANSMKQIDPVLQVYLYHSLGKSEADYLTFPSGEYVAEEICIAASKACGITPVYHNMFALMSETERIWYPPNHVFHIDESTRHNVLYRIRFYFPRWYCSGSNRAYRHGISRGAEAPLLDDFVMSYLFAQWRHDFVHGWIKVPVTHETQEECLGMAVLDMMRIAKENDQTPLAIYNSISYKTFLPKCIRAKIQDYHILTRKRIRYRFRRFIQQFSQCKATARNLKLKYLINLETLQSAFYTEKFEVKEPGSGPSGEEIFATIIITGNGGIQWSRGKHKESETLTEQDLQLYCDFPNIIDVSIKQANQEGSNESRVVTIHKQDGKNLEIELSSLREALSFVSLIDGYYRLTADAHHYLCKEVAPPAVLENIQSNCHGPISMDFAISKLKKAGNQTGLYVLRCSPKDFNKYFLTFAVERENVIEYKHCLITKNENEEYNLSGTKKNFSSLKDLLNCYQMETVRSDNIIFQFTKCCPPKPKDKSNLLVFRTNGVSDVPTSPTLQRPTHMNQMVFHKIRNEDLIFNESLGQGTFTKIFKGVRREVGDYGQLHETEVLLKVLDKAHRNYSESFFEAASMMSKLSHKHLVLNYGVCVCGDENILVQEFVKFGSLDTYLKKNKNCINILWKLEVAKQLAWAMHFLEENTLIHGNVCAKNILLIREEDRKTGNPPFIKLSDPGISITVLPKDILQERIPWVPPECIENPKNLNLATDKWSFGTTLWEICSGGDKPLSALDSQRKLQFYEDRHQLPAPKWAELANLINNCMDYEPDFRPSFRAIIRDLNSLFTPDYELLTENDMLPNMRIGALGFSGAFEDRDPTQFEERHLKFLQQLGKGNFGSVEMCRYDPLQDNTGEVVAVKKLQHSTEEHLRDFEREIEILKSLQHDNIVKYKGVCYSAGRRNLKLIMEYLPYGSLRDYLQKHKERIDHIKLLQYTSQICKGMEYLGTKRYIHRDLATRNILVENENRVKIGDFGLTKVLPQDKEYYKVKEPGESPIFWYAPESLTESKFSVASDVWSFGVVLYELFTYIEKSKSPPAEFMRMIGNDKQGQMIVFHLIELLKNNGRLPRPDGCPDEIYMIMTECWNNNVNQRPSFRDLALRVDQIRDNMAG
The target of series [11] is MERTK (UniProt Q12866). The description is as above.
MERTK, sequence (Q12866 whole entry, looked up): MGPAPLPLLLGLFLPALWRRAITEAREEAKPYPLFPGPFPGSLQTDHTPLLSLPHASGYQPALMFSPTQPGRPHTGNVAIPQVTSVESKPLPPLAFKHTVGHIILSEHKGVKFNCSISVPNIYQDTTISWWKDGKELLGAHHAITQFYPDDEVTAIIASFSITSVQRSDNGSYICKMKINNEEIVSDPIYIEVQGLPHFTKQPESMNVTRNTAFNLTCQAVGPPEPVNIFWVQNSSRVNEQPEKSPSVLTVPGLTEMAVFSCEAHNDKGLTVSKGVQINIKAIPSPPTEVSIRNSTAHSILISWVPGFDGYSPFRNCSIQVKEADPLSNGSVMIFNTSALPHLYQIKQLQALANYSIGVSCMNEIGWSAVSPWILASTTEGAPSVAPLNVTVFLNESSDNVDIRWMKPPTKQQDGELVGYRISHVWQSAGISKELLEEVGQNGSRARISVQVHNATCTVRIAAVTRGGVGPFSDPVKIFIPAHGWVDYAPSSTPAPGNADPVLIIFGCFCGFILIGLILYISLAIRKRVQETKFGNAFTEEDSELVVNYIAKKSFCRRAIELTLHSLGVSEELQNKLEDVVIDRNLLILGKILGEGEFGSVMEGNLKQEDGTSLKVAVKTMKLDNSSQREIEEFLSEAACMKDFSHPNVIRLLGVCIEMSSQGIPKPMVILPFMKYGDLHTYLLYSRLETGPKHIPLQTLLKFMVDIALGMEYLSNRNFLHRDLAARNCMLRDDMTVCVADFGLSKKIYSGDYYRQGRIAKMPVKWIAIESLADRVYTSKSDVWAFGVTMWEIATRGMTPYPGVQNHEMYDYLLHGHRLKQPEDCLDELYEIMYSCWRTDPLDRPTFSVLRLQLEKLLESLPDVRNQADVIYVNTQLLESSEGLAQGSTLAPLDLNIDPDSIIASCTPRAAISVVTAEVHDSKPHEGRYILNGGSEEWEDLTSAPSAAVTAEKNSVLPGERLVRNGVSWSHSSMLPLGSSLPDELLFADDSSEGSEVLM
The subject of series [12] is c-Abl (mouse). The series is described as above.
Series [13] relates to c-Src. The description is as above.
Series [14] addresses Grb2 SH2 (UniProt P62993). In words: SH2 binding enrichment of the phosphorylated peptide, bacterial display (enrichment ratio); higher = better substrate or ligand; peptides without Tyr show the background.
The target in series [15] is SHP2-C SH2. The series is described as above.
Series [16] deals with c-Src SH2. The series is described as above.
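Throughout, for SH2 binding enrichment of the phosphorylated peptide, bacterial display: peptide library displayed on the E. coli surface as eCPX fusions, selected cells deep-sequenced, score is each peptide's frequency after selection divided by its frequency in the input.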
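Throughout, for phosphorylation enrichment, bacterial display: 11-residue human phosphosite peptides and single-mutation variants displayed on the E. coli surface, counted by deep sequencing, each peptide's frequency after selection divided by its frequency in the unselected input library; frequency after pTyr selection over input frequency; kinase dosed for 20-30% of maximal phosphorylation in three min.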

FGFR3, sequence (P22607 whole entry, looked up): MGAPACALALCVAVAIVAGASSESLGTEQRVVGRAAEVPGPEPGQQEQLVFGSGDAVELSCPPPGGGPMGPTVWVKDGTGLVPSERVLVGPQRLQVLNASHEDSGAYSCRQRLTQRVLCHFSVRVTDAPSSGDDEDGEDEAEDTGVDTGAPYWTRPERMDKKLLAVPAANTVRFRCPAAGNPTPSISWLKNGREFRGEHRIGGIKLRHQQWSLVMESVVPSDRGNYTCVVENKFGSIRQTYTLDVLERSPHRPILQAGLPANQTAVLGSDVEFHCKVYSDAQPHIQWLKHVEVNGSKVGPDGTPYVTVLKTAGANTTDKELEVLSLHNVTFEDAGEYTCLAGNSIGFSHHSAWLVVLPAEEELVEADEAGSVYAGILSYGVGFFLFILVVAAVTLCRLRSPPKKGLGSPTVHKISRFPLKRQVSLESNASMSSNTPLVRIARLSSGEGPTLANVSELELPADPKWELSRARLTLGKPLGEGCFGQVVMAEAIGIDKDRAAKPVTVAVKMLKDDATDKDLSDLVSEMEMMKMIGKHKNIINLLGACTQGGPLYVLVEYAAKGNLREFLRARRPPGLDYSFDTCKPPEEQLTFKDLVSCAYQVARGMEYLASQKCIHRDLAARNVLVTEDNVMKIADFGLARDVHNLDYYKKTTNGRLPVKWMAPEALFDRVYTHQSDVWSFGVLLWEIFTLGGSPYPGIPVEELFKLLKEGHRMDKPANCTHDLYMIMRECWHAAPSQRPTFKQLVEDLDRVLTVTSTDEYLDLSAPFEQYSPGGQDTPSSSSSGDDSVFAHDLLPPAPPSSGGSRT
Grb2 SH2, sequence (P62993 whole entry, looked up): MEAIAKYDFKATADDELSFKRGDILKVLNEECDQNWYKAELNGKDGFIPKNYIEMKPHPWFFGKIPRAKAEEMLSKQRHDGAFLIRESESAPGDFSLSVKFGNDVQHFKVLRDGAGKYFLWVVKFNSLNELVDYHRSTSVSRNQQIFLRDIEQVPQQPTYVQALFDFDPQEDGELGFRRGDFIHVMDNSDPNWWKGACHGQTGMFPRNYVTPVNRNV

LMLVLYGRIFR [HTR1A_Y215]: the phosphorylation enrichment in series [1] stood at 1.84; in series [2], 0.646; in series [3], 0.958; in series [4] it was 0.372; in series [5], 0.809; in series [6], 0.768. The phosphorylation enrichment in series [7] was determined as 1.24; in series [8] it was 0.715; in series [9] it was 0.495; in series [10], 1.48; in series [11], 0.475; in [12], 0.791. Moreover, in series [13], the phosphorylation enrichment was found to be 0.644. The SH2 binding enrichment in series [14] is 1.54; in series [15], 1.25; in series [16], 1.42.

For the sequence DIRAQYDELAR [KRT18_Y256], the phosphorylation enrichment in [1] turned out to be 1.02; in series [2], 0.452; in [3], 0.483; in series [4], 0.576; in series [5] it was 0.592; in [6], 0.503. The phosphorylation enrichment was determined as 1.01 in series [7]; 0.58 in [8]; 0.761 in series [9]; 1.04 in [10]; 0.47 in series [11]; 0.766 in [12]. Moreover, the phosphorylation enrichment in [13] was determined as 0.474. The SH2 binding enrichment in [14] was found to be 0.931; in series [15] it was 0.702; in [16], 7.06.

For the sequence FEDTLYTVLHR [UNC13D_Y61_A59T_YF], the phosphorylation enrichment in series [1] is 2.45; in [2] it was 9.72; in [3], 4.95; in [4] it was 1.18; in series [5], 1.5; in [6] it was 5.83. The phosphorylation enrichment in series [7] is 1.38; in series [8], 5.65; in series [9], 7.58; in series [10], 1.56; in [11] it was 7.86; in [12], 1.99. Further, in [13], the phosphorylation enrichment worked out at 6.22. Besides, the values for the SH2 binding enrichment in series [14], in series [15] and in series [16] were 0.771, 0.426 and 0.711, respectively.

With GIADDYDKKKL [EIF1_Y54], the phosphorylation enrichment in series [1] came out at 0.882; in series [2] it was 0.456; in series [3], 0.565; in series [4] it was 0.465; in series [5], 0.565; in series [6], 0.4. Also, the phosphorylation enrichment in [7] is 0.943; in [8], 0.467; in series [9], 0.512; in [10] it was 0.845; in series [11], 0.383; in [12], 0.667. In addition, the phosphorylation enrichment in [13] came out at 0.377. The figures for the SH2 binding enrichment in [14], in series [15] and in series [16] were 0.931, 0.496 and 0.452, respectively.

Consider VFSTDCFRVGG [NTRK2_Y706_Y706C_YF], for which the phosphorylation enrichment in [1] was found to be 1.02; in series [2], 0.588; in [3], 0.462; in series [4] it was 0.565; in series [5], 0.602; in [6], 0.761. The phosphorylation enrichment in series [7] is 0.971; in series [8] it was 0.945; in [9], 0.685; in [10], 1.07; in [11], 0.549; in series [12] it was 1.04. Besides, the phosphorylation enrichment in [13] was 0.44. The figures for the SH2 binding enrichment in series [14], in series [15] and in series [16] were 0.87, 1.13 and 0.816, respectively.

Consider GLNKDYRMVVN [HINT1_Y94_G93D], for which the phosphorylation enrichment came to 0.652 in series [1]; 0.426 in series [2]; 0.44 in series [3]; 0.51 in series [4]; 0.504 in series [5]; 0.448 in series [6]. Also, the phosphorylation enrichment in series [7] was 0.605; in [8] it was 0.455; in series [9], 0.437; in [10], 0.566; in [11] it was 0.424; in series [12], 0.447. The phosphorylation enrichment in [13] amounted to 0.415. For the same sequence, the figures for the SH2 binding enrichment in series [14], in series [15] and in series [16] were 0.734, 0.635 and 0.451, respectively.

On to MPLTEYLKQIK [CNGB3_Y200_R203Q], for which the phosphorylation enrichment in series [1] was 0.83; in series [2], 0.572; in [3], 0.511; in series [4], 0.533; in series [5], 0.526; in [6], 0.451. The phosphorylation enrichment in [7] came out at 0.995; in [8], 0.448; in series [9], 0.514; in series [10] it was 0.749; in series [11], 0.459; in series [12] it was 0.844. In addition, the phosphorylation enrichment in series [13] was determined as 0.582. Also, the SH2 binding enrichment was 0.534 in series [14], 0.651 in [15] and 0.364 in [16].

As to DAHFTYSRFPW [LY75_Y888_D884A_YF], the phosphorylation enrichment in series [1] is 1.05; in series [2], 2.72; in series [3], 3.63; in series [4], 0.748; in series [5], 0.736; in series [6], 0.499. Also, the phosphorylation enrichment in series [7] came to 1.09; in [8] it was 3.13; in series [9], 5.79; in series [10], 1.29; in [11] it was 3.89; in [12], 1. Further, in series [13], the phosphorylation enrichment was 5.62. Moreover, the figures for the SH2 binding enrichment in series [14], in [15] and in [16] were 1.06, 0.942 and 0.719, respectively.
